For this experiment, the target named is chitin binding domain-intein fusion of the ToxR periplasmic domain (CBDI-ToxRp) (V. cholerae El Tor N16961), P15795. Kind of experiment: pull-down.

Several values for one entry are separate records, joined by “and”; a condition that tells them apart may be missing. Identical values can stand only once.

The results in this text go back to article PMC5498992.

B1: ToxS periplasmic domain (ToxSp), purified, cleaved from the chitin binding domain-intein tag, P24003 25-173 (domain or fragment)
chain: SDFKLEQVLTSREWQSKMVSLIKTNSNRPAMGPLSRVDVTSNVKYLPNGTYLRVSIVKLFSDDNSAESVINISEFGEWDISDNYLLVTPVEFKDISSNQSKDFTDEQLQLITQLFKMDAQQSRRVDIVNERTILFTSLSHGSTVLFSNS
modifications: not checked
For the molecule B1, the percent of input pulled down is 6% and 9%.
